The data set has as its target T1, CasEnd-2 (synthetic construct).
T1 chain: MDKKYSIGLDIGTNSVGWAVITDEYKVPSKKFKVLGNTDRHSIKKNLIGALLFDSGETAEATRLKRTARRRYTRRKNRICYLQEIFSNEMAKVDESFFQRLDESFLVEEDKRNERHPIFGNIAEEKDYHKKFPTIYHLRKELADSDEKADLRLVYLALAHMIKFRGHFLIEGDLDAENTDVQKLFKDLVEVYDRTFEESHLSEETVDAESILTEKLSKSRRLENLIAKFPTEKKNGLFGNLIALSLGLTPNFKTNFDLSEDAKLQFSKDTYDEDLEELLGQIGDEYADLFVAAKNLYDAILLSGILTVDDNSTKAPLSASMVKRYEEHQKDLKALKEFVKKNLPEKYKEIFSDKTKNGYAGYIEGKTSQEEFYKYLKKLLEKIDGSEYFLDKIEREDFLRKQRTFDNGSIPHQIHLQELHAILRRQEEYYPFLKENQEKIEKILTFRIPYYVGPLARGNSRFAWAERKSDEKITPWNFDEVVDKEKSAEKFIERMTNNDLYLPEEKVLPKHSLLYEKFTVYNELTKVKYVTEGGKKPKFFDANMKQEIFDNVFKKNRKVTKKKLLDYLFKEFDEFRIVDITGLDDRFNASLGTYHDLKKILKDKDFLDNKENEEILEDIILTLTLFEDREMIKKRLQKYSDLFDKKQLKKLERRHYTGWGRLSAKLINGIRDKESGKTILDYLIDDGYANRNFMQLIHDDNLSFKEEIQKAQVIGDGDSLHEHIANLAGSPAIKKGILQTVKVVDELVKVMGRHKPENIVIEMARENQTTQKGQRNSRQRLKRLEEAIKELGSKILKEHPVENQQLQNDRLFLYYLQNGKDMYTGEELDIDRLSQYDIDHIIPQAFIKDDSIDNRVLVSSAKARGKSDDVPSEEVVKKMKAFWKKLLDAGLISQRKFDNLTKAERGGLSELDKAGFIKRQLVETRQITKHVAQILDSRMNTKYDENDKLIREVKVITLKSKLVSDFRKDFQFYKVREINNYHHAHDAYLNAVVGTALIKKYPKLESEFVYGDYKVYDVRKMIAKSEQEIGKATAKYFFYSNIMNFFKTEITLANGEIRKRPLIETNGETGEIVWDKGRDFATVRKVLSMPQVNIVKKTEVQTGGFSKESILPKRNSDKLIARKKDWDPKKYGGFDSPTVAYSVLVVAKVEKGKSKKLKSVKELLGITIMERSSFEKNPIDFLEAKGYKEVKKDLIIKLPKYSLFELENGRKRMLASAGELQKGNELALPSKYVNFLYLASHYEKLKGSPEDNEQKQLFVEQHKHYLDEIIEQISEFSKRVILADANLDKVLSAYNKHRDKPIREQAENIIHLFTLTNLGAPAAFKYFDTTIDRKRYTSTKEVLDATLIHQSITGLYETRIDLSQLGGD
Nature of the data set: cell_activity; +++; HEK293T; PAM not stated. In outline:
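Editing activity was scored as the fraction of GFP+ cells on day 4 by flow cytometry. BFP-expressing HEK293T cells (250,000) received by nucleofection 200 ng plasmid for the RT-Cas fusion protein and 200 ng template RNA plasmid designed to convert BFP to GFP.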

B1: BFP-to-GFP template RNA ; BFP reporter protospacer (ssRNA ; dsDNA)
RNA: GCCGAAGCACUGCACGCCGUGUUUUAGAGCUAGAAAUAGCAAGUUAAAAUAAGGCUAGUCCGUUAUCAACUUGAAAAAGUGGCACCGAGUCGGUGCACCCUGACGUACGGCGUGCAGUGCUU
DNA 1: GCCGAAGCACTGCACGCCGT
DNA 2: ACGGCGTGCAGTGCTTCGGC
On to B1, for which the activity was ≥ 100 % of reference.

Source of the values: patent US20250092426, “CAS ENDONUCLEASES AND RELATED METHODS” (Flagship Pioneering Innovations VII, LLC, published 2025).
